Data: patent US20120329986A1
Numbered stars: 1 amine (or outer) side, 2 acyl side, 3 side chain; on linkers, the order of the positions; unused ones are H or OH. Square brackets hold non-standard residues; d marks the D form. Primed or numbered codes have the meaning given here. Ends that are not written are not given here. dTrp(2-Me) = Cc1[nH]c2ccccc2c1C[C@@H](N)C(=O)O; azaPhe = O=C(N(Cc1ccccc1)N[*:1])[*:2]; azaLeu = CC(C)CN(N[*:1])C(=O)[*:2]; azaTyr′ = not defined here; HAIC = not defined here; azaGly = NNC(=O)O; Mpa = O=C(O)CCS

Legend:
[1] = molecular target: nonspecific proteins present in blood serum; experiment: SPR, mass of serum proteins adsorbed on the peptide self-assembled monolayer on gold
[2] = molecular target: recombinant soluble His-tagged CD36; experiment: SPR, His-tagged CD36 held on the Cu-NTA peptide monolayer, linear Langmuir plot
[3] = molecular target: CD36 receptor (in the src-kinase cellular assay); experiment: cell-based or functional assay

recombinant soluble His-tagged CD36, sequence (P16671 30-439): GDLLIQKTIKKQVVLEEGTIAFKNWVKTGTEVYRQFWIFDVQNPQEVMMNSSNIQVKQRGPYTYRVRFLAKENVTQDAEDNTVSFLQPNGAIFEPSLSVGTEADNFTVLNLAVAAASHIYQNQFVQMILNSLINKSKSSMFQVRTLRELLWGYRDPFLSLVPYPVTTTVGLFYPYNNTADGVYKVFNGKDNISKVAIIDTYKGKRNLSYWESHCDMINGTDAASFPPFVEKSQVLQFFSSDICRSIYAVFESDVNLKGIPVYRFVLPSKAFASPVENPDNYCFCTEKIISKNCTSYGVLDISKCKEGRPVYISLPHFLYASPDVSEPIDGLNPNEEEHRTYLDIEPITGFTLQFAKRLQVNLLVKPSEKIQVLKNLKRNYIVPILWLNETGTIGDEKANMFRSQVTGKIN

For [Mpa]HHHSS [3-MPA-HHHSS], the nonspecific adsorption (ΔΓnonspecific) [1] was 48 ng/cm^2.

Binder [Mpa]HHHDD [3-MPA-HHHDD] has a nonspecific adsorption (ΔΓnonspecific) [1] of 32 ng/cm^2.

With [Mpa]DDDHH [3-MPA-DDDHH] the nonspecific adsorption (ΔΓnonspecific) [1] was 56 ng/cm^2.

B1: 3-MPA-DHDHD-OH (peptide)
peptide: [Mpa]DHDHD-OH
SMILES: O=C(O)C[C@H](NC(=O)[C@H](Cc1c[nH]cn1)NC(=O)[C@H](CC(=O)O)NC(=O)[C@H](Cc1c[nH]cn1)NC(=O)[C@H](CC(=O)O)NC(=O)CCS)C(=O)O
Binder B1 has a nonspecific adsorption (ΔΓnonspecific) [1] of 274 ng/cm^2.

B2: 3-MPA-DSDSD-OH (peptide)
peptide: [Mpa]DSDSD-OH
SMILES: O=C(O)C[C@H](NC(=O)[C@H](CO)NC(=O)[C@H](CC(=O)O)NC(=O)[C@H](CO)NC(=O)[C@H](CC(=O)O)NC(=O)CCS)C(=O)O
With B2 the nonspecific adsorption (ΔΓnonspecific) [1] was 34 ng/cm^2.

[Mpa]SSSHH [3-MPA-SSSHH] was tested, and the nonspecific adsorption (ΔΓnonspecific) [1] was 79 ng/cm^2.

With [Mpa]LLLHH [3-MPA-LLLHH] the nonspecific adsorption (ΔΓnonspecific) [1] was 45 ng/cm^2.

B3: 3-MPA-GGHHDD-OH (peptide)
peptide: [Mpa]GGHHDD-OH
SMILES: O=C(O)C[C@H](NC(=O)[C@H](CC(=O)O)NC(=O)[C@H](Cc1c[nH]cn1)NC(=O)[C@H](Cc1c[nH]cn1)NC(=O)CNC(=O)CNC(=O)CCS)C(=O)O
B3 was tested, and the nonspecific adsorption (ΔΓnonspecific) [1] was 149 ng/cm^2.

For [HAIC][dTrp(2-Me)][dK]W[dF]K-NH2 (reading uncertain) [EP80317], the Kd [2] was 82 nM.

B4: 3-MPA-LHDLHD-OH (peptide)
peptide: [Mpa]LHDLHD-OH
SMILES: CC(C)C[C@H](NC(=O)CCS)C(=O)N[C@@H](Cc1c[nH]cn1)C(=O)N[C@@H](CC(=O)O)C(=O)N[C@@H](CC(C)C)C(=O)N[C@@H](Cc1c[nH]cn1)C(=O)N[C@@H](CC(=O)O)C(=O)O
With B4 the nonspecific adsorption (ΔΓnonspecific) [1] was 12 ng/cm^2.

H[dW][azaGly]W[dF]K-NH2 [CP-2A(v)] showed an SRC-kinase cellular assay EC50 [3] of 26 nM and a Kd [2] of 44 nM.

For [Mpa]DDDSS [3-MPA-DDDSS], the nonspecific adsorption (ΔΓnonspecific) [1] was 69 ng/cm^2.

Work on H[dW]A[azaTyr′][dF]K-NH2 [DBG-178(27)] yielded an SRC-kinase cellular assay EC50 [3] of 63 nM and a Kd [2] of 22 nM.

[Mpa]LLLDD [3-MPA-LLLDD] gave a nonspecific adsorption (ΔΓnonspecific) [1] of 35 ng/cm^2.

For [Mpa]LLLSS [3-MPA-LLLSS], the nonspecific adsorption (ΔΓnonspecific) [1] was 39 ng/cm^2.

[Mpa]GGGGD-OH (SMILES O=C(O)C[C@H](NC(=O)CNC(=O)CNC(=O)CNC(=O)CNC(=O)CCS)C(=O)O) [3-MPA-GGGGD-OH] gave a nonspecific adsorption (ΔΓnonspecific) [1] of 218 ng/cm^2.

Binder [Mpa]SSSDD [3-MPA-SSSDD] has a nonspecific adsorption (ΔΓnonspecific) [1] of 23 ng/cm^2.

B5: CP-3(iv) (peptide)
peptide: A[dW]A[azaPhe][dF]K-NH2
modifications: N-terminus assumed
SMILES: C[C@H](N)C(=O)N[C@H](Cc1c[nH]c2ccccc12)C(=O)N[C@@H](C)C(=O)NN(Cc1ccccc1)C(=O)N[C@H](Cc1ccccc1)C(=O)N[C@@H](CCCCN)C(N)=O
In the case of B5, the SRC-kinase cellular assay EC50 [3] is reported as 44 nM and the Kd [2] is reported as 380 nM.

B6: CP-2B(i) (peptide)
peptide: H[dW][azaLeu]W[dF]A-NH2
modifications: N-terminus assumed
SMILES: CC(C)CN(NC(=O)[C@@H](Cc1c[nH]c2ccccc12)NC(=O)[C@@H](N)Cc1c[nH]cn1)C(=O)N[C@@H](Cc1c[nH]c2ccccc12)C(=O)N[C@H](Cc1ccccc1)C(=O)N[C@@H](C)C(N)=O
In the case of B6, the SRC-kinase cellular assay EC50 [3] is reported as greater than 10000 nM and the Kd [2] is reported as 1400 nM.

B7: 3-MPA-SHDSHD-OH (peptide)
peptide: [Mpa]SHDSHD-OH
SMILES: O=C(O)C[C@H](NC(=O)[C@H](Cc1c[nH]cn1)NC(=O)[C@H](CO)NC(=O)[C@H](CC(=O)O)NC(=O)[C@H](Cc1c[nH]cn1)NC(=O)[C@H](CO)NC(=O)CCS)C(=O)O
B7 was tested, and the nonspecific adsorption (ΔΓnonspecific) [1] was 17 ng/cm^2.

B8: 3-MPA-LLHHDD-OH (peptide)
peptide: [Mpa]LLHHDD-OH
SMILES: CC(C)C[C@H](NC(=O)CCS)C(=O)N[C@@H](CC(C)C)C(=O)N[C@@H](Cc1c[nH]cn1)C(=O)N[C@@H](Cc1c[nH]cn1)C(=O)N[C@@H](CC(=O)O)C(=O)N[C@@H](CC(=O)O)C(=O)O
With B8 the nonspecific adsorption (ΔΓnonspecific) [1] was 174 ng/cm^2.
